Here are results for 2 molecules from US20240279309A1 (Molecular Partners, published 2024).

Assay in all cases: cell-based or functional assay
Assay [1] has as its target T1, CD40 receptor on cells (HEK293 reporter cells expressing CD40; primary human B cells) (human, UniProt P25942 21-277).
Assay [2] addresses T1, CD40 receptor on cells (HEK293 reporter …). The source holds these as a separate data set.
The target is the same in assay [3]. The source holds these as a separate data set.

T1 sequence (P25942 21-277): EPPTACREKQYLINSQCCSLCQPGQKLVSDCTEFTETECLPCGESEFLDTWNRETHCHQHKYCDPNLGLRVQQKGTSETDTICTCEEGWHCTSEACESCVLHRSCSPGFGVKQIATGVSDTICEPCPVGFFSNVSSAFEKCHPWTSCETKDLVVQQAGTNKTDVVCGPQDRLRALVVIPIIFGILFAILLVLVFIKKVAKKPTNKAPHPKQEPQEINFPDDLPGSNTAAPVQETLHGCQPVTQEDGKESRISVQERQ

B1: SMA087 (SEQ ID NO: 100) (designed binder)
chain: MRGSHHHHHHGSDLGKKLLEAARAGQDDEVRELLKAGADVNAKDYFSHTPLHLAARNGHLKIVEVLLKAGADVNAKDFAGKTPLHLAAADGHLEIVEVLLKAGADVNAQDIFGKTPADIAADAGHEDIAEVLQKAAGSPTPTPTTPTPTPTTPTPTPTGSDLGEKLLVAALYGQDDEVRELLKAGADVNAKDQWGLTPLHKAALQGHLEIVEVLLKAGADVNAKDERGHTPLHWAARFGHLEIVEVLLKAGADVNAQDQKGYTPADLAALWGHEDIAEVLQKAAGSPTPTPTTPTPTPTTPTPTPTGSDLGKKLLQAARAGQLDEVRELLKAGADVNAKDTWGFTPLHIAAESGHLEIVEVLLKAGADVNAKDVQGRTPLHIAAHSGHLEIVEVLLKAGADVNAKDFRGWTPLHLAAWSGHLEIVEILLKAGADVNAQDKSGKTPADLAARAGHQDIAEVLQKAA
Consider B1, for which, in assay [1], the “EC50 [nM], % CD86, human B cells with FAP-CHO, w HSA” value is 72.3 nM; the “EC50 [nM], % CD86, human B cells with FAP-CHO, w/o HSA” value amounted to 11.4 nM; the “EC50 [nM], MFI CD86, human B cells with FAP-CHO, w HSA” value stood at 52 nM; the “EC50 [nM], MFI CD86, human B cells with FAP-CHO, w/o HSA” value amounted to 28.9 nM. For the same molecule, in assay [2], the “Efficacy [MFI at highest dose], MFI CD86, human B cells with FAP-CHO, w HSA” value was 799 MFI; the “Efficacy [MFI at highest dose], MFI CD86, human B cells with FAP-CHO, w/o HSA” value amounted to 1640 MFI; the “Efficacy at highest dose, % CD86, human B cells with FAP-CHO, w HSA” value was 27%; the “Efficacy at highest dose, % CD86, human B cells with FAP-CHO, w/o HSA” value was determined as 43.4%. For the same molecule, in assay [3], the “Efficacy [MFI at highest dose], MFI CD86, human B cells with WT-CHO (no FAP), w HSA” value is 299 MFI; the “Efficacy [MFI at highest dose], MFI CD86, human B cells with WT-CHO (no FAP), w/o HSA” value is 291 MFI; the “Efficacy at highest dose, % CD86, human B cells with WT-CHO (no FAP), w HSA” value is 13.7%; the “Efficacy at highest dose, % CD86, human B cells with WT-CHO (no FAP), w/o HSA” value amounted to 12.5%.

B2: SMA014 (SEQ ID NO: 99) (designed binder)
chain: MRGSHHHHHHGSDLGEKLLVAALYGQDDEVRELLKAGADVNAKDQWGLTPLHKAALQGHLEIVEVLLKAGADVNAKDERGHTPLHWAARFGHLEIVEVLLKAGADVNAQDQKGYTPADLAALWGHEDIAEVLQKAAGSPTPTPTTPTPTPTTPTPTPTGSDLGKKLLQAARAGQLDEVRELLKAGADVNAKDTWGFTPLHIAAESGHLEIVEVLLKAGADVNAKDVQGRTPLHIAAHSGHLEIVEVLLKAGADVNAKDFRGWTPLHLAAWSGHLEIVEILLKAGADVNAQDKSGKTPADLAARAGHQDIAEVLQKAA
For the molecule B2, in assay [1], the “EC50 [nM], % CD86, human B cells with FAP-CHO, w HSA” value is 6.15 nM; the “EC50 [nM], % CD86, human B cells with FAP-CHO, w/o HSA” value is 4.21 nM; the “EC50 [nM], MFI CD86, human B cells with FAP-CHO, w HSA” value came to 7.7 nM; the “EC50 [nM], MFI CD86, human B cells with FAP-CHO, w/o HSA” value amounted to 8.46 nM. Also, in assay [2], the “Efficacy [MFI at highest dose], MFI CD86, human B cells with FAP-CHO, w HSA” value amounted to 2190 MFI; the “Efficacy [MFI at highest dose], MFI CD86, human B cells with FAP-CHO, w/o HSA” value is 2440 MFI; the “Efficacy at highest dose, % CD86, human B cells with FAP-CHO, w HSA” value was found to be 47%; the “Efficacy at highest dose, % CD86, human B cells with FAP-CHO, w/o HSA” value is 48.4%. Moreover, in assay [3], the “Efficacy [MFI at highest dose], MFI CD86, human B cells with WT-CHO (no FAP), w HSA” value turned out to be 310 MFI; the “Efficacy [MFI at highest dose], MFI CD86, human B cells with WT-CHO (no FAP), w/o HSA” value was found to be 294 MFI; the “Efficacy at highest dose, % CD86, human B cells with WT-CHO (no FAP), w HSA” value came out at 13.3%; the “Efficacy at highest dose, % CD86, human B cells with WT-CHO (no FAP), w/o HSA” value was determined as 13.2%.
